According to IntAct's records for PubMed 20118266:

B1: Flagellar biosynthesis protein FlhA (Salmonella typhimurium), P40729 (parent)
chain: MANLVAMLRLPSNLKSTQWQILAGPILILLILSMMVLPLPAFILDLLFTFNIALSIMVLLVAMFTQRTLDFAAFPTILLFTTLLRLALNVASTRIILMEGHTGAAAAGKVVEAFGHFLVGGNFAIGIVVFIILVIINFMVITKGAGRIAEVGARFVLDGMPGKQMAIDADLNAGLIGEDEAKKRRSEVTQEADFYGSMDGASKFVRGDAIAGILIMVINVVGGLLVGVLQHGMSIGSAAESYTLLTIGDGLVAQIPALVISTAAGVIVTRVSTDQDVGEQMVGQLFSNPRVMLLAAAVLGLLGMVPGMPNLVFLLFTAALLGLAWWLRGREEKAPEEPQPVKMPENNSVVEATWNDVQLEDSLGMEVGYRLIPMVDFQQDGELLGRIRSIRKKFAQDMGFLPPVVHIRDNMDLQPARYRILMKGVEIGSGDAYPGRWLAINPGTAAGTLPGEKTVDPAFGLDAIWIESALKEQAQIQGFTVVEASTVVATHLNHLIGQFSAELFGRQEAQQLLDRVSQEMPKLTEDLVPGVVTLTTLHKVLQNLLAEKVPIRDMRTILETLAEHAPLQSDPHELTAVVRVALGRAITQQWFPGNEEVQVIGLDTALERLLLQALQGGGGLEPGLADRLLAQTQEALSRQEMLGAPPVLLVNHALRPLLSRFLRRSLPQLVVLSNLELSDNRHIRMTATIGGK
partner: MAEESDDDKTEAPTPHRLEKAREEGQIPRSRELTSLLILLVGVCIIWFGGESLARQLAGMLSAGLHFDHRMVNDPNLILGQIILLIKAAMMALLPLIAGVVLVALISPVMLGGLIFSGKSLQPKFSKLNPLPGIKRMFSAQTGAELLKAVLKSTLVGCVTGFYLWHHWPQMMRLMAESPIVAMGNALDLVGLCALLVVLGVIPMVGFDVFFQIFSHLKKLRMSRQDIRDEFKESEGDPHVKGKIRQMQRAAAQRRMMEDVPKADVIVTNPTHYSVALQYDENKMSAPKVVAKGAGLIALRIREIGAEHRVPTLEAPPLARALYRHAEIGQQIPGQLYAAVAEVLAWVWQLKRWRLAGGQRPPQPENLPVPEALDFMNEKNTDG
B2: Flagellar biosynthesis protein FlhA (Salmonella typhimurium), P40729 (parent)
chain: B1 chain

Variants of: B1
Details: with flhb_salty flhB

| Variant | effect of a mutation on the interaction |
| --- | --- |
| G368C | increasing interaction strength |

Variants of: B2
Details: with flij_salty fliJ

| Variant | effect of a mutation on the interaction |
| --- | --- |
| G368C | increasing interaction strength |
